Source: the supplement of paper PMC7877785
± gives the uncertainty stated by the source.

Assay: self-splicing fitness, log relative to wild type (ln ratio); higher = more splicing; Tetrahymena group I intron in knt gene, E. coli kanamycin selection, DiMSum; sequences stand for … in CUCUCU…GGAGGGAAAAGUUAUCAGGCAUGCACCUGGUAGCUAGUCUUUAAACCAAUAGAUUGCAUCGGUUUAAAAGGCAAGACCGUCAAAUUGCGGGAAAGGGGUCAACAGCCGUUCAGUACCAAGUCUCAGGGGAAACUUUGAGAUGGCCUUGCAAAGGGUAUGGUAAUAAGCUGACGGACAUGGUCCUAACCACGCAGCCAAGUCCUAAGUCAACAGAUCUUCUGUUGAUAUGGAUGCAGUUCACAGACUAAAUGUCGGUCGGGGAAGAUGUAUUCUUCUCAUAAGAUAUAGUCGGACCUCUCCUUAAUGGGAGCUAGCGGAUGAAGUGAUGCAACACUGGAGCCGCUGGGAACUAAUUUGUAUGCGAAAGUAUAUUGAUUAGUUUUGGAGUACUCGUGGUCG
Method in brief: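 Colonies from six replicate transformations of E. coli BL21(DE3) were pooled and amplicon-sequenced on an Illumina HiSeq 2500. The library placed an intron with all eight P1ex-region nucleotides randomised inside the knt kanamycin-resistance gene on pET-22b(+), and cells grew overnight at 37°C or 30°C on LB agar with or without 25 μg/mL kanamycin (plus 100 μg/mL carbenicillin, 50 μM IPTG, 0.2% rhamnose). Fitness is the DiMSum error-weighted combination of wild-type-normalised replicate fold changes, kanamycin versus none.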

Sequence	self-splicing fitness (ln) (30 °C)	self-splicing fitness (ln) (37 °C)
CGACAGCAAUAUUACGGGCG	-1.71 ± 0.17	-1.81 ± 0.19
CGACAGCAAUAUUACGGGCU	-4.16 ± 0.2	-2.53 ± 0.15
CGACAGCAAUAUUACGGUAG	-1.47 ± 0.069	-0.946 ± 0.069
CGACAGCAAUAUUACGGUCA	-0.168 ± 0.083	0.276 ± 0.1
CGACAGCAAUAUUACGGUCG	-3.33 ± 0.14	-2.48 ± 0.15
CGACAGCAAUAUUACGUGUC	-3.39 ± 0.13	-2.01 ± 0.12
CGAGAGCAAUAUUACGACAU	-3.964 ± 0.034	-2.84 ± 0.046
CGAGAGCAAUAUUACGACUC	-2.03 ± 0.42	-0.968 ± 0.39
CGAGAGCAAUAUUACGAUAC	-3.49 ± 0.42	-1.05 ± 0.26
CGAGAGCAAUAUUACGAUCA	-2.63 ± 0.38	-1.75 ± 0.38
CGAGAGCAAUAUUACGAUCU	-2.45 ± 0.42	
CGAGAGCAAUAUUACGCUAA	-2.68 ± 0.33	
CGAGAGCAAUAUUACGGAUC	-3.76 ± 0.38	-1.51 ± 0.28
CGAGAGCAAUAUUACGGCAU	-3.2 ± 0.42	-2.15 ± 0.46
CGAGAGCAAUAUUACGGCCU	-2.61 ± 0.39	-2.63 ± 0.44
CGAGAGCAAUAUUACGGUAA	-1.51 ± 0.25	-2.55 ± 0.28
CGAGAGCAAUAUUACGGUUA	-3.13 ± 0.43	-2.79 ± 0.49
CGAGAGCAAUAUUACGUACU		-0.953 ± 0.3
CGAGAGCAAUAUUACGUAGU	-2.78 ± 0.3	-1.7 ± 0.27
CGAGAGCAAUAUUACGUAUG	-3.68 ± 0.29	-1.49 ± 0.21
CGAGAGCAAUAUUACGUCUA	-3.15 ± 0.36	
CGAGAGCAAUAUUACGUGAC	-2.77 ± 0.2	-2.01 ± 0.29
CGAGAGCAAUAUUACGUGGA	-3.7 ± 0.26	-2.89 ± 0.23
CGAGAGCAAUAUUACGUGUG	-2.97 ± 0.12	-2.5 ± 0.15
CGAUAGCAAUAUUACGAAGG	-0.374 ± 0.11	-0.55 ± 0.17
CGAUAGCAAUAUUACGAAUU	-4.06 ± 0.3	-2.41 ± 0.21

Sequence	self-splicing fitness (ln) (30 °C)	self-splicing fitness (ln) (37 °C)
CGAUAGCAAUAUUACGACAA	-3.4 ± 0.34	-2.35 ± 0.27
CGAUAGCAAUAUUACGACUC	-1.15 ± 0.15	-1.38 ± 0.17
CGAUAGCAAUAUUACGAGAG	-2.05 ± 0.2	-2.66 ± 0.26
CGAUAGCAAUAUUACGAUCU	-0.235 ± 0.11	0.177 ± 0.12
CGAUAGCAAUAUUACGAUUU	-2.52 ± 0.14	-0.871 ± 0.14
CGAUAGCAAUAUUACGCAGA	-3.24 ± 0.21	-1.75 ± 0.13
CGAUAGCAAUAUUACGCAGG	-1.6 ± 0.092	-1.25 ± 0.1
CGAUAGCAAUAUUACGCAUC	-3.16 ± 0.31	-1.94 ± 0.38
CGAUAGCAAUAUUACGCGUA	-2.42 ± 0.41	-2.14 ± 0.24
CGAUAGCAAUAUUACGCGUC		-1.76 ± 0.47
CGAUAGCAAUAUUACGCUCU	-0.961 ± 0.12	0.447 ± 0.12
CGAUAGCAAUAUUACGCUGU	-3.12 ± 0.4	-2.15 ± 0.31
CGAUAGCAAUAUUACGCUUG	-2.88 ± 0.2	-1.04 ± 0.16
CGAUAGCAAUAUUACGGGCU		0.128 ± 0.17
CGAUAGCAAUAUUACGGGUG	-0.832 ± 0.069	-0.736 ± 0.074
CGAUAGCAAUAUUACGGUUU	-3.43 ± 0.15	-0.7 ± 0.1
CGAUAGCAAUAUUACGUGAA	-4.38 ± 0.22	-2.16 ± 0.16
CGAUAGCAAUAUUACGUGCC	-1.8 ± 0.15	0.00354 ± 0.14
CGAUAGCAAUAUUACGUGGC	-2.8 ± 0.21	-3.36 ± 0.46
CGAUAGCAAUAUUACGUGUA	-2.23 ± 0.12	-2.15 ± 0.2
CGAUAGCAAUAUUACGUUCA	-0.0649 ± 0.082	0.251 ± 0.1
CGAUAGCAAUAUUACGUUCC	-1.5 ± 0.25	-1.51 ± 0.32
CGAUAGCAAUAUUACGUUUG	-2.29 ± 0.081	-0.812 ± 0.081
CGCAAGCAAUAUUACGACCA	-0.724 ± 0.1	-0.453 ± 0.12
CGCAAGCAAUAUUACGACCG	-1.4 ± 0.11	-0.441 ± 0.14
CGCAAGCAAUAUUACGACGC	-3.59 ± 0.2	-2.03 ± 0.16

Sequence	self-splicing fitness (ln) (30 °C)	self-splicing fitness (ln) (37 °C)
CGCAAGCAAUAUUACGACGU	-1.73 ± 0.068	-0.28 ± 0.069
CGCAAGCAAUAUUACGAGGU	-4.03 ± 0.23	-1.82 ± 0.16
CGCAAGCAAUAUUACGAUGC		-2.4 ± 0.32
CGCAAGCAAUAUUACGCACG	-2.96 ± 0.23	-1.24 ± 0.17
CGCAAGCAAUAUUACGCACU	-0.441 ± 0.092	-0.325 ± 0.11
CGCAAGCAAUAUUACGCCAG	-1.01 ± 0.094	-0.582 ± 0.13
CGCAAGCAAUAUUACGCCAU	-3.9 ± 0.26	-2.61 ± 0.19
CGCAAGCAAUAUUACGCCCC	-1.49 ± 0.36	-0.475 ± 0.38
CGCAAGCAAUAUUACGCCUC	-3.64 ± 0.22	-1.78 ± 0.15
CGCAAGCAAUAUUACGCGCU	-3.78 ± 0.16	-1.41 ± 0.12
CGCAAGCAAUAUUACGCGGU	-2.75 ± 0.11	-2.44 ± 0.17
CGCAAGCAAUAUUACGCUAU	-3.23 ± 0.17	-3.15 ± 0.22
CGCAAGCAAUAUUACGCUGG	-3.06 ± 0.31	-2.09 ± 0.25
CGCAAGCAAUAUUACGGAGC	-2.49 ± 0.17	-2.24 ± 0.24
CGCAAGCAAUAUUACGGCCA	-1.14 ± 0.13	-0.716 ± 0.12
CGCAAGCAAUAUUACGGUAU	-4.65 ± 0.19	-2.42 ± 0.13
CGCAAGCAAUAUUACGGUGU	-3.42 ± 0.16	-3.25 ± 0.23
CGCAAGCAAUAUUACGUACC	-3.02 ± 0.17	-1.8 ± 0.17
CGCAAGCAAUAUUACGUCAG	-0.378 ± 0.053	0.1 ± 0.069
CGCAAGCAAUAUUACGUCCA	-1.46 ± 0.089	-0.939 ± 0.1
CGCAAGCAAUAUUACGUGCU	-0.881 ± 0.069	-0.489 ± 0.081
CGCAAGCAAUAUUACGUUCU	-1.53 ± 0.076	-1.33 ± 0.087
CGCCAGCAAUAUUACGAACU		0.274 ± 0.25
CGCCAGCAAUAUUACGACGC	-3.21 ± 0.2	-2.97 ± 0.35
CGCCAGCAAUAUUACGCAAA	-2.31 ± 0.19	-2.64 ± 0.26
